Patent US10441663B2, “Methods for treating cancer” (Bicycle Therapeutics Limited, priority 2016, dated 2019)
*1 amine or outer side, *2 acyl side, *3 side chain or, on linkers, in order; H or OH if unused. Where a SMILES comes first, the peptide text is derived from it. Bridges are numbered along the chain shown (N, C = ends). [ ]: non-standard residue; d: D form. The star is where a group is joined. X1 = COc1cc2cc(c1Cl)N(C)C(=O)C[C@H](OC(=O)[C@H](C)N(C)C(=O)CCSSC(C)CCC(=O)*)[C@]1(C)O[C@H]1[C@H](C)[C@@H]1C[C@@](O)(NC(=O)O1)[C@H](OC)/C=C/C=C(\C)C2; 1Nal = N[C@@H](Cc1cccc2ccccc12)C(=O)O; TBMB = c1c(C[*:1])cc(C[*:3])cc1C[*:2]; Tle = CC(C)(C)[C@H](N)C(=O)O; βAla = NCCC(=O)O; Sar = CNCC(=O)O

Tested on: EBC-1 xenograft
Assay: Efficacy of BT1718 in EBC-1 xenograft model (Example 1)
Assay type: in vivo, Mus Musculus
Design: key to Best response at 10 mg/kg: CR complete response; PR partial response
Details: for Tumor Size (mm^3): Mean ± SEM
Description: The objective of this study was to evaluate the anti-tumor efficacy of BT1718 in EBC-1 xenograft model in female BALB/c nude mice.
The EBC-1 tumor cells were maintained in vitro as a monolayer culture in EMEM medium supplemented with 10% heat inactivated fetal bovine serum at 37° C. in an atmosphere of 5% CO2 in air. The tumor cells will be routinely subcultured twice weekly by trypsin-EDTA treatment. The cells growing in an exponential growth phase will be harvested and counted for tumor inoculation.
Each mouse was inoculated subcutaneously at the right flank with EBC-1 tumor cells (10×10^6) in 0.2 ml of PBS for tumor development. The animals were randomized and treatment was started when the average tumor volume reaches approximately 165 mm^3 for the efficacy study.
All the procedures related to animal handling, care and the treatment in the study were performed according to the guidelines of the Association for Assessment and Accreditation of Laboratory Animal Care (AAALAC). At the time of routine monitoring, the animals were daily checked for any effects of tumor growth and treatments on normal behavior such as mobility, food and water consumption (by looking only), body weight gain/loss (body weights were measured every day), eye/hair matting and any other abnormal effect as stated in the protocol. Death and observed clinical signs were recorded on the basis of the numbers of animals within each subset.
The major endpoint was to see if the tumor growth could be delayed or mice could be cured. Tumor size was measured three times weekly in two dimensions using a caliper, and the volume was expressed in mm^3 using the formula: V=0.5 a×b^2 where a and b are the long and short diameters of the tumor, respectively. The tumor size was then used for calculations of T/C value. The T/C value (in percent) is an indication of antitumor effectiveness; T and C are the mean volumes of the treated and control groups, respectively, on a given day.
TGI was calculated for each group using the formula: TGI (%)=[1−(Ti−T0)/(Vi−V0)]×100; Ti is the average tumor volume of a treatment group on a given day, T0 is the average tumor volume of the treatment group on the day of treatment start, Vi is the average tumor volume of the vehicle control group on the same day with Ti, and V0 is the average tumor volume of the vehicle group on the day of treatment start.
Summary statistics, including mean and the standard error of the mean (SEM), are provided for the tumor volume of each group at each time point.
Statistical analysis of difference in tumor volume among the groups was conducted on the data obtained at the best therapeutic time point after the final dose.
A one-way ANOVA was performed to compare tumor volume among groups, and when a significant F-statistics (a ratio of treatment variance to the error variance) was obtained, comparisons between groups were carried out with Games-Howell test. All data were analyzed using Prism. P<0.05 was considered to be statistically significant.

## COc1cc2cc(c1Cl)N(C)C(=O)C[C@H](OC(=O)[C@H](C)N(C)C(=O)CCSSC(C)CCC(=O)NCCC(=O)N(C)CC(=O)N(C)CC(=O)N(C)CC(=O)N(C)CC(=O)N(C)CC(=O)N(C)CC(=O)N(C)CC(=O)N(C)CC(=O)N(C)CC(=O)N(C)CC(=O)N[C@@H](C)C(=O)N[C@H]1CSCc3cc4cc(c3)CSC[C@H](NC(=O)[C@@H](C)NC(=O)[C@H](Cc3cccc5ccccc35)NC(=O)[C@H](CCC(=O)O)NC(=O)[C@H](CC(N)=O)NC(=O)[C@@H](C)NC1=O)C(=O)N[C@@H](CCC(=O)O)C(=O)N[C@@H](CC(=O)O)C(=O)N[C@@H](Cc1ccccc1)C(=O)N[C@@H](Cc1ccc(O)cc1)C(=O)N[C@@H](CC(=O)O)C(=O)N[C@@H](C(C)(C)C)C(=O)N[C@H](C(N)=O)CSC4)[C@]1(C)O[C@H]1[C@H](C)[C@@H]1C[C@@](O)(NC(=O)O1)[C@H](OC)/C=C/C=C(\C)C2 (some centres unmarked) [BT1718] ({X1-βAla}-[Sar][Sar][Sar][Sar][Sar][Sar][Sar][Sar][Sar][Sar]AC[dA]NE[1Nal][dA]CEDFYD[Tle]C-NH2; linker 12-18-25 via TBMB (inferred))
4.5 mpk biw, day 21
  Tumor Volume: 526 ± 95 mm^3
9 mpk qw, day 0
  Body Weight: 24.0 ± 0.4 g
  Body Weight (% Change): 0.0%
  Tumor Volume: 163 ± 19 mm^3
9 mpk qw, day 2
  Body Weight: 23.2 ± 0.6 g
  Body Weight (% Change): −3.4 ± 0.9%
  Tumor Volume: 182 ± 25 mm^3
9 mpk qw, day 4
  Body Weight: 23.8 ± 0.5 g
  Body Weight (% Change): −0.7 ± 1.8%
  Tumor Volume: 200 ± 28 mm^3
9 mpk qw, day 7
  Body Weight: 24.7 ± 0.2 g
  Body Weight (% Change): 2.8 ± 0.6%
  Tumor Volume: 202 ± 64 mm^3
9 mpk qw, day 9
  Body Weight: 23.8 ± 0.5 g
  Body Weight (% Change): −1.1 ± 0.7%
  Tumor Volume: 187 ± 70 mm^3
9 mpk qw, day 11
  Body Weight: 24.7 ± 0.4 g
  Body Weight (% Change): 2.8 ± 0.9%
  Tumor Volume: 164 ± 61 mm^3
9 mpk qw, day 14
  Body Weight: 24.9 ± 0.4 g
  Body Weight (% Change): 3.7 ± 0.8%
  T/C (%): 12%
  TGI (%): 101%
  Tumor Volume: 154 ± 72 mm^3
  Tumor Size (mm^3): 154 ± 72 mm^3
9 mpk qw, day 16
  Body Weight: 24.6 ± 0.2 g
  Body Weight (% Change): 2.3 ± 0.6%
  Tumor Volume: 186 ± 83 mm^3
9 mpk qw, day 18
  Body Weight: 24.8 ± 0.2 g
  Body Weight (% Change): 3.2 ± 0.8%
  Tumor Volume: 245 ± 119 mm^3
9 mpk qw, day 21
  Body Weight: 24.8 ± 0.2 g
  Body Weight (% Change): 3.1 ± 1.0%
  Tumor Volume: 320 ± 153 mm^3
10 mpk tiw, day 0
  Body Weight: 24.2 ± 0.4 g
  Body Weight (% Change): 0.0%
  Tumor Volume: 167 ± 11 mm^3
10 mpk tiw, day 2
  Body Weight: 23.2 ± 0.6 g
  Body Weight (% Change): −4.0 ± 1.3%
  Tumor Volume: 216 ± 21 mm^3
10 mpk tiw, day 4
  Body Weight: 23.7 ± 0.5 g
  Body Weight (% Change): −2.1 ± 0.9%
  Tumor Volume: 205 ± 24 mm^3
10 mpk tiw, day 7
  Body Weight: 22.7 ± 0.6 g
  Body Weight (% Change): −6.2 ± 0.8%
  Tumor Volume: 114 ± 10 mm^3
10 mpk tiw, day 9
  Body Weight: 23.1 ± 0.4 g
  Body Weight (% Change): −4.4 ± 0.3%
  Tumor Volume: 45 ± 4 mm^3
10 mpk tiw, day 11
  Body Weight: 22.9 ± 0.6 g
  Body Weight (% Change): −5.2 ± 1.1%
  Tumor Volume: 16 ± 3 mm^3
10 mpk tiw, day 14
  Body Weight: 23.8 ± 0.5 g
  Body Weight (% Change): −1.6%
  T/C (%): 0%
  TGI (%): 115%
  Tumor Volume: 0 ± 0 mm^3
  Tumor Size (mm^3): 0 ± 0 mm^3
15 mpk biw, day 0
  Body Weight: 23.7 ± 0.3 g
  Body Weight (% Change): 0.0%
  Tumor Volume: 161 ± 12 mm^3
15 mpk biw, day 2
  Body Weight: 22.7 ± 0.4 g
  Body Weight (% Change): −4.2 ± 0.6%
  Tumor Volume: 173 ± 11 mm^3
15 mpk biw, day 4
  Body Weight: 22.6 ± 0.3 g
  Body Weight (% Change): −4.5 ± 0.3%
  Tumor Volume: 136 ± 10 mm^3
15 mpk biw, day 7
  Body Weight: 22.8 ± 0.4 g
  Body Weight (% Change): −3.7 ± 2.5%
  Tumor Volume: 79 ± 1 mm^3
15 mpk biw, day 9
  Body Weight: 22.7 ± 0.2 g
  Body Weight (% Change): −4.3 ± 1.7%
  Tumor Volume: 36 ± 2 mm^3
15 mpk biw, day 11
  Body Weight: 23.4 ± 0.3 g
  Body Weight (% Change): −1.2 ± 0.3%
  Tumor Volume: 12 ± 0 mm^3
15 mpk biw, day 14
  Body Weight: 23.7 ± 0.5 g
  Body Weight (% Change): 0.2 ± 1.4%
  T/C (%): 0%
  TGI (%): 115%
  Tumor Volume: 0 ± 0 mm^3
  Tumor Size (mm^3): 0 ± 0 mm^3
30 mpk qw, day 0
  Body Weight: 24.6 ± 0.6 g
  Body Weight (% Change): 0.0%
  Tumor Volume: 166 ± 10 mm^3
30 mpk qw, day 2
  Body Weight: 20.9 ± 0.3 g
  Body Weight (% Change): −14.9 ± 2.2%
  Tumor Volume: 166 ± 22 mm^3
30 mpk qw, day 4
  Body Weight: 21.9 ± 1.0 g
  Body Weight (% Change): −10.8 ± 4.3%
  Tumor Volume: 128 ± 6 mm^3
30 mpk qw, day 7
  Body Weight: 23.1 ± 1.0 g
  Body Weight (% Change): −6.2 ± 3.5%
  Tumor Volume: 89 ± 4 mm^3
30 mpk qw, day 9
  Body Weight: 20.8 ± 1.0 g
  Body Weight (% Change): −15.5 ± 3.4%
  Tumor Volume: 47 ± 3 mm^3
30 mpk qw, day 11
  Body Weight: 22.1 ± 0.9 g
  Body Weight (% Change): −10.3 ± 3.3%
  Tumor Volume: 18 ± 2 mm^3
30 mpk qw, day 14
  Body Weight: 24.0 ± 1.0 g
  Body Weight (% Change): −2.4 ± 3.2%
  T/C (%): 0%
  TGI (%): 115%
  Tumor Volume: 0 ± 0 mm^3
  Tumor Size (mm^3): 0 ± 0 mm^3
EBC-1, 10 mg/kg
  Best response at 10 mg/kg: CR
EBC-1, dose leading to tumor-stasis
  Minimally Effective Dose IV BIW: <10 mg/kg
Other groups (all except 30 mg/kg qw)
  body weight effect: maintained their bodyweight well
Same total dose, schedules from daily to a single weekly dose
  treatment effect: Effective treatment
